Results on one molecule are retold here after patent US5837813.

In experiment [1] the target is human fibronectin (human) (UniProt P02751). Nature of the experiment: solid-phase competition, 125I-fibronectin on coated fibronectin.
The target is the same in experiment [2]. Put plainly: solid-phase competition, 125I-14 kDa fragment on coated fibronectin.
Experiment [3] shares this target.

LISIQQYGHQEVTRFDFTTTSTSTPVTSNTV [polypeptide P3] had an IC50 in experiment [1] of 200 to 300 µM. The same molecule registered a fold less potent than P1 in experiment [2] of 100 fold. Besides, the ^125 I-fibronectin bound to IMR-90 cells after one hour in experiment [3] was found to be 25%.
